{"source": "patent US20070036810A1", "about": "“Cyclic amp response element activator proteins and uses related thereto” (priority 2003, published 2007)", "molecules": {"B1": {"name": "MEKK: truncated MEKK (AA 360-672) expression construct (Stratagene), known activator of the NF-κB pathway (protein, UniProt Q13233 360-672, looked up, fragment)", "chain": "FVMLRVFQLEPSDPMLWRKTLKNFEVESLFQKYHSRRSSRIKAPSRNTIQKFVSRMSNSHTLSSSSTSTSSSENSIKDEEEQMCPICLLGMLDEESLTVCEDGCRNKLHHHCMSIWAEECRRNREPLICPLCRSKWRSHDFYSHELSSPVDSPSSLRAAQQQTVQQQPLAGSRRNQESNFNLTHYGTQQIPPAYKDLAEPWIQVFGMELVGCLFSRNWNVREMALRRLSHDVSGALLLANGESTGNSGGSSGSSPSGGATSGSSQTSISGDVVEACCSVLSMVCADPVYKVYVAALKTLRAMLVYTPCHSLAE"}, "B2": {"name": "MAP3K11: Mitogen-Activated Protein Kinase Kinase Kinase 11 expression construct, AP-1 activator (protein, UniProt Q16584 1-847, looked up)", "Mitogen-activated protein …": "MEPLKSLFLKSPLGSWNGSGSGGGGGGGGGRPEGSPKAAGYANPVWTALFDYEPSGQDELALRKGDRVEVLSRDAAISGDEGWWAGQVGGQVGIFPSNYVSRGGGPPPCEVASFQELRLEEVIGIGGFGKVYRGSWRGELVAVKAARQDPDEDISVTAESVRQEARLFAMLAHPNIIALKAVCLEEPNLCLVMEYAAGGPLSRALAGRRVPPHVLVNWAVQIARGMHYLHCEALVPVIHRDLKSNNILLLQPIESDDMEHKTLKITDFGLAREWHKTTQMSAAGTYAWMAPEVIKASTFSKGSDVWSFGVLLWELLTGEVPYRGIDCLAVAYGVAVNKLTLPIPSTCPEPFAQLMADCWAQDPHRRPDFASILQQLEALEAQVLREMPRDSFHSMQEGWKREIQGLFDELRAKEKELLSREEELTRAAREQRSQAEQLRRREHLLAQWELEVFERELTLLLQQVDRERPHVRRRRGTFKRSKLRARDGGERISMPLDFKHRITVQASPGLDRRRNVFEVGPGDSPTFPRFRAIQLEPAEPGQAWGRQSPRRLEDSSNGERRACWAWGPSSPKPGEAQNGRRRSRMDEATWYLDSDDSSPLGSPSTPPALNGNPPRPSLEPEEPKRPVPAERGSSSGTPKLIQRALLRGTALLASLGLGRDLQPPGGPGRERGESPTTPPTPTPAPCPTEPPPSPLICFSLKTPDSPPTPAPLLLDLGIPVGQRSAKSPRREEEPRGGTVSPPPGTSRSAPGTPGTPRSPPLGLISRPRPSPLRSRIDPWSFVSAGPRPSPLPSPQPAPRRAPWTLFPDSDPFWDSPPANPFQGGPQDCRAQTKDMGAQAPWVPEAGP"}, "B3": {"name": "dCREAP: Drosophila CREAP gene product, 797 amino acids, SEQ ID NO 27; expressed from pUAS-dCREAP (protein)", "chain": "MANPRKFSEKIALQKQKQAEGTAEFERIMKEVYATKRDEPPANQKILDGLVGGQEVSQSSPGAGNGTGGGGSGSGSGASGGGASPDGLGGGGGSPTAYRESRGRSVGVGPMRRPSERKQDRSPYGSSSTQQTLDNGQLNPHLLGPPTAESLWRRSSSDSALHQSALVAGFNSDVNSMGANYQQQQHQQQQQPGQPRSHSPHHGINRTMSPQAQRRKSPLLQPHQLQLQQLQQQQQQMQHQHQLHQQLQMQQLQQHQQQHQQQQQQQNTPYNNAKFTNPVFRPLQDQVNFANTGSLPDLTALQNYGPQQQQQQSQQQPSQQQQQLQQTLSPVMSPHNHRRERDQSPSPFSPAGGGGGAGPGSPYQQQQHSPTGNTQQQQQQHQQPSNSPHLSFTNLATTQAAVTTFNPLPTLGPHNATDYRQPPNPPSPRSSPGLLSSVSATDLHSSAPASPIRQQQQAHQQQQQQQQAQQQQQQFDNSYNSLNTSFHNQFEIFSLGDSNSSPEQQGFANNFVALDFDDLSGGGGGGPSGGGGSNGGGLTNGYNKPEMLDFSELSGSPEASGNNNHMRRGVSNLNNNGLSNGVVGSTHNGSTNLNGAGNNNSSSGGGTAQDPLGITTSPVPSPLGCPSSPLPIPIPMSAQSSPQQQHHHHQQQQQQHHQQQHHQQQQLSLSLHHSPHHSPMHSPHHGNSPLSSSSPVSHNACSNSNVVMNHQQQQQQHHHQQHHHQGSSQSHTPTTANIPSIIFSDYSSNADYTREIFDSLDLDLGQMDVAGLQMLSDQNPIMIADPNIEDSFRRDLN", "modifications": "drosophila melanogaster"}}, "key": {"[1]": {"molecular_target": "T1, ATF2-GAL4 fusion molecule (Homo sapiens, UniProt P15336)", "T1 construct": "host or cells: HLR cell line (5x GAL4 element-luciferase reporter)", "T1 sequence (P15336 with tags, fused parts or gaps limits assumed)": "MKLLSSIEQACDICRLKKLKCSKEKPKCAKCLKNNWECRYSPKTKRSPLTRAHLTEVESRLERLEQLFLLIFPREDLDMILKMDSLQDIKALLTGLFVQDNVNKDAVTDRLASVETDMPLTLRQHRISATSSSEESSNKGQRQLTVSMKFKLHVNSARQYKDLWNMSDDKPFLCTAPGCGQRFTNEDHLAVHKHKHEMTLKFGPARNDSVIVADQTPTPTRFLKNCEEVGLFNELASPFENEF", "experiment": "In vivo kinase assay, ATF2-GAL4 fusion in HLR cells", "assay_type": "cell-based", "details": "40 hours after transfection", "protocol": "For in vivo kinase assay, activation domains of CREB or ATF2 transcription factors fused with the yeast GAL4 DNA binding domain (1-147 Amino Acids) constructs are used (Stratagene, PathDetect In Vivo Signal Transduction Pathway trans-reporting Systems). The HLR cell line that contains a 5× GAL4 DNA binding element and TATA box driving luciferase reporter is used per manufacturer's protocol (Stratagene). 10^4 HLR cells are split into each well of 96 well tissue culture plates. After 16 hours, cells are transfected with 100 ng of Creb-GAL4 or ATF2-GAL4 fusion constructs, 30 ng of Renilla luciferase control plasmid together with 100 ng of pCMVSPORT6, pCMVSPORT-CREAP1, pFC-PKA or pFC-MEKK (Stratagene) activator plasmids respectively. Transfection is done with Fugene6 reagent (Roche Molecular Biochemicals, Basel, Switzerland) according to the manufacturers manual. Forty hours after transfection, a Dual-Glo Luciferase assay (Promega) is conducted using the manufacturer's protocol.\nAs CREAP1 strongly activates CRE promoter transcription, we next investigated whether CREAP1 works through the CREB pathway. […]"}, "human IL-8 promoter": {"system": "human IL-8 promoter", "experiment": "pGL2-IL-8p-Luc reporter inducibility in HEK 293 cells", "assay_type": "cell-based", "details": "expression construct co-transfected into HEK 293 cells, 48 hours post transfection", "protocol": "A luciferase reporter controlled by a 1.5 kB IL-8 promoter containing fragment of human IL-8 promoter was tested for inducibility by known regulators of cytokine-mediated gene expression. pNF-κB-Luc (BD Biosciences) and pGL2-IL-8p-Luc reporters were co-transfected into HEK 293 cells with expression constructs encoding known activators of the NF-κB pathway, truncated MEKK (AA 360-672) (Stratagene) and a full length TRAF6 cDNA made according to conventional methods using a proprietary clone collection. Cells co-transfected with empty pCMV-Sport6 vector were either left untreated or treated with TNFα (50 ng/ml, for 16 hours). Luciferase activity was measured 48 hours post transfection. The pNF-κB-Luc reporter was used as a positive control."}, "[2]": {"system": "secreted IL-8 protein from HeLa cells", "experiment": "IL-8 Elisa assay in HeLa cells", "assay_type": "cell-based", "details": "after transfection", "protocol": "HeLa cells are transfected with DNA samples selected from the group of sequence verified and confirmed hits at 100 ng per well in 96 well plates (Costar) using the protocol described above. DNA samples designated as co-activators are co-transfected at 25 ng per well. Empty vector pCMV-Sport6 is used as a negative control. 72 hours post-transfection IL-8 content is measured in the cell growth media in prediluted aliquots corresponding to 1 to 5 μl of conditioned growth media using an IL-8 Elisa kit (Sigma) following the provided protocol. As a positive control, growth media is collected from the cells transfected with empty vector and treated with IL-1β and TNFα (R&D Systems) at 5 ng/ml and 50 ng/ml respectively for 16 hours prior to collection of the growth media for the IL-8 assay."}, "[3]": {"system": "CRE-like element of IL-8 promoter (pCREL-Luc)", "experiment": "pCREL-Luc reporter (concatamerized CRE-like site) assay", "assay_type": "cell-based", "details": "minimal promoter carrying concatamerized CRE-like site; data not shown", "source_text": "The pIL-8Luc reporter was constructed by insertion of the −1491 to +43 region of the human IL-8 gene into pGL3Basic vector (Promega, Inc). PCR was used to generate a wild type minimal IL-8 promoter as well as point mutants. Mutations in AP-1, C/EBP, NF-κB were as described by Wu et al. (Wu et al. J. Biol. Chem., 272:2396-2403 (1997)). The sequence of a putative CRE-like site TGACATAA was mutated to TCGATCAA. Promoter constructs carrying 6 concatamerised copies of CRE-like response element (pCREL-Luc) or 5 copies of CRE-like element TGACACAA found in human PEPCK and CAPL promoters (pCREL2-Luc) were prepared by ligating PCR amplified sequences into pTAL-Luc (BD Biosciences). All techniques were performed using conventional methods.\nIn order to determine if the “CRE-like element” was directly responsive to CREAP1 or MAP3K11, the ability of both genes to activate a minimal promoter carrying concatamerized CRE-like site (pCREL-Luc) was examined. In addition, we studied the effect of PMA known inducer of AP-1."}, "[4]": {"system": "Drosophila CRE (CRE-hsp-Luc reporter)", "experiment": "CRE-hsp-Luc reporter assay in Drosophila S2 cells", "assay_type": "cell-based, Drosophila melanogaster", "details": "48 hours post-transfection", "source_text": "The amplified product was inserted into the Drosophila P-element transformation vector, pUAST (Brand and Perrimon, Development 118:401-415 (1993)). The final construct pUAS-dCREAP was used for transfection experiments in Drosophila melanogaster Schneider cells (S2). A firefly luciferase reporter was created which contained 4 copies of the drosophila CRE enhancer element (SEQ ID 39) (Eresh, S. et. Al. EMBO J. 16:2014-2022 (1997)) followed by hsp70 minimal promoter.\nThe S2 cells were transfected in 6 well plates (Costar) by the CaPO4 method (Bunch, T. and Goldstein, L. Nucleic Acids Res. 17:9761-9782 (1989)). A total of 25 ug of DNA was transfected into a 6-well dish containing 4 mls of cells (˜1×10^6 cells/ml). The transfection mix was removed after 18 hr and the luciferase assays were performed 48 hrs later. The UAS-transgenes were activated by co-transfection with the Actin promoter-Gal4 plasmid provided by Dr. Norbert Perrimon. The transfection efficiency was normalized co-transfection with hsp^mln Renilla luciferase driven by minimal heat shock promoter (made according to conventional methods). Luciferase activity was measured using the Dual-luciferase assay kit (Promega). […] Data were calculated as fold induction compared to the reporter gene's activity measured in the cells designated as negative control."}}}
{"molecule": "B1", "values": [{"measurement": "stimulation of ATF2 fusion", "setting": "[1]", "value": "more than 100 fold"}, {"measurement": "increase of IL-8 promoter-reporter activity", "setting": "human IL-8 promoter", "value": 16, "unit": "times"}]}
{"molecule": "B2", "values": [{"measurement": "accumulation of secreted IL-8 protein", "setting": "[2]", "value": "induced small increases"}, {"measurement": "activation of pCREL-Luc", "setting": "[3]", "value": "neither by MAP3K11"}]}
{"molecule": "B3", "values": [{"measurement": "Fold Activation", "setting": "[4]; CRE-hsp-Luc reporter (4 copies of Drosophila CRE)", "value": 136.04}, {"measurement": "Fold Activation", "setting": "[4]; hsp-Luc reporter without CRE", "value": 0.96}]}
